Target: T1, Myc tagged TRPC3 (UniProt Q13507-3 1-848, limits assumed)
T1 construct: Expressed in HEK293T cells and tested in cell lysates; also called Myc-TRPC3
T1 sequence (looked up): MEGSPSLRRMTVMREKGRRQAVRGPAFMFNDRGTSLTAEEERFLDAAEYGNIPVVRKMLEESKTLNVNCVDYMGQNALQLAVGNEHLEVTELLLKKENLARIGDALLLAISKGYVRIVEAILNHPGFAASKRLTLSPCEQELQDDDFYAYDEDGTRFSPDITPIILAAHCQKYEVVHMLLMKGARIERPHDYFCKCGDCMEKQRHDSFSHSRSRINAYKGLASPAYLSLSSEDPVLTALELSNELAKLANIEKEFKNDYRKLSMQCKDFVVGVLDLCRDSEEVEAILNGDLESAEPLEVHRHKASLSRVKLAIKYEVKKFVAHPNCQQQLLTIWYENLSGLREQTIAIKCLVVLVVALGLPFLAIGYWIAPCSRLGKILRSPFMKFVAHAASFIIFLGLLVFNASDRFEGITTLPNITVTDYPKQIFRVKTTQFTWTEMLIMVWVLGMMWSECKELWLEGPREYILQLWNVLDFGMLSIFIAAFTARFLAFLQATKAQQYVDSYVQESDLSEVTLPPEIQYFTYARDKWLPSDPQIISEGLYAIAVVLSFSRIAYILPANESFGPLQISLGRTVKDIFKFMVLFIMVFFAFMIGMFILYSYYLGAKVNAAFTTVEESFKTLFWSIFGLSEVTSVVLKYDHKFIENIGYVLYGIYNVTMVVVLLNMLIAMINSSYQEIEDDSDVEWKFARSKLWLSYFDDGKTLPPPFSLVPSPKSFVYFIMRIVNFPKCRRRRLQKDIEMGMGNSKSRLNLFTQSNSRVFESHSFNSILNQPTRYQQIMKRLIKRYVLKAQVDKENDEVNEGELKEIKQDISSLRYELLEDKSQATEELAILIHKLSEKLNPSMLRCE
Test: co-immunoprecipitation from lysates of HEK293T cells cotransfected with V5-SPLUNC1 and Myc-TRPC3
Experimental: Immunoprecipitation analysis was performed using cell lysates from HEK293T cells cotransfected with V5-SPLUNC1 and Myc-TRPC3. Data represents an n=3 blots.
Antibodies, immunoprecipitation, and immunoblot analysis: Rabbit anti-Orai1, anti-HA epitope (Santa Cruz), anti-GFP, anti-phospho-myosin light chain, anti-total myosin light chain, anti-GAPDH (glyceraldehyde-3-phosphate dehydrogenase) (Cell Signaling Technology); mouse anti-V5 epitope (Life Technologies), were purchased from commercial sources. To detect protein expression in total cell lysates, cells were lysed in Pierce® IP lysis buffer with 25 mM Tris-HCl pH 7.4, 150 mM NaCl, 1% NP-40, 1 mM EDTA, 5% glycerol, followed by SDS-polyacrylamide electrophoresis and immunoblot.

binding result: no binding
B1: V5-SPLUNC1 (other, not shown: small tags and cut ends)
chain: QFGGLPVPLDQTLPLNVNPALPLSPTGLAGSLTNALSNGLLSGGLLGILENLPLLDILKPGGGTSGGLLGGLLGKVTSVIPGLNNIIDIKVTDPQLLELGLVQSPDGHRLYVTIPLGIKLQVNTPLVGASLLRLAVKLDITAEILAVRDKQERIHLVLGDCTHSPGSLQISLLDGLGPLPIQGLLDSLTGILNKVLPELVQGNVCPLVNEVLRGLDITLVHDIVNMLIHGLQFVIKV
notes: Expressed in HEK293T cells and tested in cell lysates; The tag is placed first only because the name is printed that way; also called pcDNA3.1(+)-V5-SPLUNC1
